From patent publication US20240043537A1 (MacroGenics, published 2024)

T1: 5T4 on A498 cells (UniProt Q13641 32-420, limits assumed)
T1 construct: whole, on cells; also called 5T4-expressing A498 cells; A-498 kidney carcinoma (5T4)
T1 sequence (looked up): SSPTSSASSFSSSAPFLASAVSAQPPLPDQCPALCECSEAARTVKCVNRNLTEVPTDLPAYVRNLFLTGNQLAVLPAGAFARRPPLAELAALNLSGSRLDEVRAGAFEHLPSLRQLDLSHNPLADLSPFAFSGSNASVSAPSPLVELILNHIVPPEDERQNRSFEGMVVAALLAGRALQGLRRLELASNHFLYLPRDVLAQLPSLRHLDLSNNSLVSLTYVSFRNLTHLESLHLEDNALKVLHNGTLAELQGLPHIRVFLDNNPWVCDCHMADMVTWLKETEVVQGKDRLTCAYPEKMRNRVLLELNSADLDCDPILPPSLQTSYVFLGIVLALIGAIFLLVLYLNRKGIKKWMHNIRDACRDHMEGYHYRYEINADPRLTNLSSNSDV

B1: 5T4-WT (bispecific antibody)
chain 1: DIQMTQSPSSLSASVGDRVTITCRASQGISNYLAWFQQKPGKAPKSLIYRANRLQSGVPSRFSGSGSGTDFTLTISSLQPEDVATYYCLQYDDFPWTFGQGTKLEIKGGGSGGGGEVQLVESGGGLVQPGGSLRLSCAASGFTFSTYAMNWVRQAPGKGLEWVGRIRSKYNNYATYYADSVKGRFTISRDDSKNSLYLQMNSLKTEDTAVYYCVRHGNFGNSYVSWFAYWGQGTLVTVSSGGCGGGEVAALEKEVAALEKEVAALEKEVAALEKGGGDKTHTCPPCPAPEAAGGPSVFLFPPKPKDTLMISRTPEVTCVVVDVSHEDPEVKFNWYVDGVEVHNAKTKPREEQYNSTYRVVSVLTVLHQDWLNGKEYKCKVSNKALPAPIEKTISKAKGQPREPQVYTLPPSREEMTKNQVSLWCLVKGFYPSDIAVEWESNGQPENNYKTTPPVLDSDGSFFLYSKLTVDKSRWQQGNVFSCSVMHEALHNHYTQKSLSLSPGK
chain 2: QAVVTQEPSLTVSPGGTVTLTCRSSTGAVTTSNYANWVQQKPGQAPRGLIGGTNKRAPWTPARFSGSLLGGKAALTITGAQAEDEADYYCALWYSNLWVFGGGTKLTVLGGGGSGGGGQVQLVQSGAEVKKPGASVKVSCKASGYTFTSFWMHWVRQAPGQGLEWMGRIDPNRGGTEYNEKAKSRVTMTADKSTSTAYMELSSLRSEDTAVYYCAGGNPYYPMDYWGQGTTVTVSSGGCGGGKVAALKEKVAALKEKVAALKEKVAALKE
chain 3: not shown
notes: Three-chain diabody with Fc; Kabat position 65 of the CD3 VH is G in this construct; also called 5T4 x CD3 mAb 1 DART-B-type diabody
B2: 5T4-M2 (bispecific antibody)
chain 1: DIQMTQSPSSLSASVGDRVTITCRASQGISNYLAWFQQKPGKAPKSLIYRANRLQSGVPSRFSGSGSGTDFTLTISSLQPEDVATYYCLQYDDFPWTFGQGTKLEIKGGGSGGGGEVQLVESGGGLVQPGGSLRLSCAASGFTFSTYAMNWVRQAPGKGLEWVGRIRSKYNNYATYYADSVKDRFTISRDDSKNSLYLQMNSLKTEDTAVYYCVRHKNFGNSYVTWFAYWGQGTLVTVSSGGCGGGEVAALEKEVAALEKEVAALEKEVAALEKGGGDKTHTCPPCPAPEAAGGPSVFLFPPKPKDTLMISRTPEVTCVVVDVSHEDPEVKFNWYVDGVEVHNAKTKPREEQYNSTYRVVSVLTVLHQDWLNGKEYKCKVSNKALPAPIEKTISKAKGQPREPQVYTLPPSREEMTKNQVSLWCLVKGFYPSDIAVEWESNGQPENNYKTTPPVLDSDGSFFLYSKLTVDKSRWQQGNVFSCSVMHEALHNHYTQKSLSLSPGK
chain 2: QAVVTQEPSLTVSPGGTVTLTCRSSTGAVTTSNYANWVQQKPGQAPRGLIGGTNKRAPWTPARFSGSLLGGKAALTITGAQAEDEADYYCALWYSNLWVFGGGTKLTVLGGGGSGGGGQVQLVQSGAEVKKPGASVKVSCKASGYTFTSFWMHWVRQAPGQGLEWMGRIDPNRGGTEYNEKAKSRVTMTADKSTSTAYMELSSLRSEDTAVYYCAGGNPYYPMDYWGQGTTVTVSSGGCGGGKVAALKEKVAALKEKVAALKEKVAALKE
chain 3: not shown
notes: Three-chain diabody with Fc; also called 5T4 x CD3 mAb 1 M2 DART-B-type diabody
B3: 5T4-M1 (bispecific antibody)
chain 1: DIQMTQSPSSLSASVGDRVTITCRASQGISNYLAWFQQKPGKAPKSLIYRANRLQSGVPSRFSGSGSGTDFTLTISSLQPEDVATYYCLQYDDFPWTFGQGTKLEIKGGGSGGGGEVQLVESGGGLVQPGGSLRLSCAASGFTFSTYAMNWVRQAPGKGLEWVGRIRSKYNNYATYYADSVKDRFTISRDDSKNSLYLQMNSLKTEDTAVYYCVRHGNFGNSYVTWFAYWGQGTLVTVSSGGCGGGEVAALEKEVAALEKEVAALEKEVAALEKGGGDKTHTCPPCPAPEAAGGPSVFLFPPKPKDTLMISRTPEVTCVVVDVSHEDPEVKFNWYVDGVEVHNAKTKPREEQYNSTYRVVSVLTVLHQDWLNGKEYKCKVSNKALPAPIEKTISKAKGQPREPQVYTLPPSREEMTKNQVSLWCLVKGFYPSDIAVEWESNGQPENNYKTTPPVLDSDGSFFLYSKLTVDKSRWQQGNVFSCSVMHEALHNHYTQKSLSLSPGK
chain 2: QAVVTQEPSLTVSPGGTVTLTCRSSTGAVTTSNYANWVQQKPGQAPRGLIGGTNKRAPWTPARFSGSLLGGKAALTITGAQAEDEADYYCALWYSNLWVFGGGTKLTVLGGGGSGGGGQVQLVQSGAEVKKPGASVKVSCKASGYTFTSFWMHWVRQAPGQGLEWMGRIDPNRGGTEYNEKAKSRVTMTADKSTSTAYMELSSLRSEDTAVYYCAGGNPYYPMDYWGQGTTVTVSSGGCGGGKVAALKEKVAALKEKVAALKEKVAALKE
chain 3: not shown
notes: Three-chain diabody with Fc; also called 5T4 x CD3 mAb 1 M1 DART-B-type diabody

Columns and labels:
soluble human CD3 = soluble human CD3 (human, UniProt P07766 23-126); experiment: SPR (BIAcore), diabody over immobilized human CD3
Chain of soluble human CD3 (P07766 23-126): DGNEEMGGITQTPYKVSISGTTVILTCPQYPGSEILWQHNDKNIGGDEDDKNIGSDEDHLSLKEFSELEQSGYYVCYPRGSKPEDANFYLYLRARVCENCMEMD
Method: The ability of the CD123-binding diabodies: CD123-WT, CD123-M1, CD123-M2 and CD123-M18 to bind to human CD3 and CD123 was also evaluated using BIAcore®. […] Table 14 presents the calculated kₐ, kd and KD from these studies.
The ability of the 5T4-binding diabodies: 5T4-WT, 5T4-M1, 5T4-M2 and 5T4-M18 to bind to CD3 was also evaluated using BIAcore®, as described above. Table 15A presents the calculated kₐ, kd and KD.

5T4 on A498 cells = biological target: T1, 5T4 on A498 cells; experiment: Flow cytometry on A498 cells; detection with biotinylated anti-E/K-coil antibody and streptavidin-PE
Method: FIG. 9A-9B show the ability of DART-B-type diabodies to bind to Disease Antigens. […] Binding was detected using biotinylated antibody specific for the diabodies' E/K coils and streptavidin-phycoerythrin (PE).
The ability of such diabodies to bind to their respective Disease Antigen (i.e., CD123 or 5T4) on the surface of MOLM-13 leukemia (CD123) or A-498 kidney carcinoma (5T4) target cancer cells was assessed using FACS. Briefly, cells were incubated with the diabody molecules (in FACS buffer containing 10% human AB serum) in microtiter plates. The cells were washed and incubated with biotin-conjugated mouse anti-EK-coil antibody that recognizes the E-coil/K-coil (EK) Heterodimer-Promoting Domain of the diabodies mixed with streptavidin-phycoerythrin.

Binder	Kd (soluble human CD3) [nM]	koff (soluble human CD3) [s⁻¹]	kon (soluble human CD3) [M⁻¹ s⁻¹]	EC50 (read off the curve) (5T4 on A498 cells) [nM]
B1	36	0.0054	150000	~1
B2	118	0.041	350000	~1
B3	326	0.031	95000	~1
